Results: PMC3064236

Biological target: Mcm2-7 heterohexamer (X. laevis (endogenous in egg extract)) (UniProt P55861)
Experiment: SEC + other: glycerol gradient sedimentation

- stoichiometry N (hexamers in the complex): 2
Substance: Mcm2-7 heterohexamer, P55861 1-886; P49739 1-807; P30664 1-863; P55862 1-735; Q5FWY4 1-821; Q91876 1-720
